Reference: patent publication US20250042994A1 (HAINAN SIMCERE ZAIMING PHARMACEUTICAL, published 2025)

T1: Human CD19-his protein (human, UniProt P15391 20-291)
T1 construct: bought protein; also called recombinant human CD19-His; CD19 full-length protein; not shown: His tag
T1 sequence (looked up): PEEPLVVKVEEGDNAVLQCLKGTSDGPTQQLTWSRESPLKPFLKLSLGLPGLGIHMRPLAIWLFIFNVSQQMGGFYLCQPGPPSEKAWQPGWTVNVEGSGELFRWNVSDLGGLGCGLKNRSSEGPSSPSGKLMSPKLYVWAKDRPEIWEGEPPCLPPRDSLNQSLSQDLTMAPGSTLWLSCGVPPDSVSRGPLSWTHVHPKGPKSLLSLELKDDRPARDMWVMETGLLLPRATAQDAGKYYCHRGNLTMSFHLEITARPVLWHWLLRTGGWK

T2: human CD19 exon1-3-His tag protein (human, UniProt P15391 20-186, limits assumed)
T2 construct: membrane-distal part of the extracellular region, made in HEK293E cells; not shown: His tag
T2 sequence (looked up): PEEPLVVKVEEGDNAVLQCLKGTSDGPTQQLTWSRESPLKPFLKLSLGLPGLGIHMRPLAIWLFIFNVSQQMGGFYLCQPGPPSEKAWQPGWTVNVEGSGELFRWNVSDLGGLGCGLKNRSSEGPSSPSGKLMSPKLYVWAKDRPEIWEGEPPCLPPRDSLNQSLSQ

T3: Human CD19-his protein (human, UniProt P15391 20-291)
T3 construct: bought protein; also called human CD19 protein; recombinant human CD19-His; not shown: His tag
T3 sequence (looked up): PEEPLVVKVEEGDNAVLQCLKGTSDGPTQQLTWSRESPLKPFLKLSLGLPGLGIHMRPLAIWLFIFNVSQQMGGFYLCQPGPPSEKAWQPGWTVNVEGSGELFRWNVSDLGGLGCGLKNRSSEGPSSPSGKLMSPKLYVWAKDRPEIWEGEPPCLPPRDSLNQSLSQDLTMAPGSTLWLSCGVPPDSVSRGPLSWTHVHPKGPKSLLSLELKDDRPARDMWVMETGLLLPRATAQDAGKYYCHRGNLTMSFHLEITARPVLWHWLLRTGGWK

T4: murine CD19 protein (murine, UniProt P25918 17-287, limits assumed)
T4 construct: bought protein; also called commercial murine CD19
T4 sequence (looked up): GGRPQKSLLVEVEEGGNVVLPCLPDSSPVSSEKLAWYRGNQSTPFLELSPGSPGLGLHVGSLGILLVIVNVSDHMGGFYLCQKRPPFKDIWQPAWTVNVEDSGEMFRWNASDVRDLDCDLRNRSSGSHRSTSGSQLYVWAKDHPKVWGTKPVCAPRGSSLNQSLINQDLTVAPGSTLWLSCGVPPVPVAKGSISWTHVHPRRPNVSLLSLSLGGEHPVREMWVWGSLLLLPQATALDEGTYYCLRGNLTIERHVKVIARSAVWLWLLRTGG

T5: human CD19 on Raji cells (human, UniProt P15391 20-556)
T5 construct: whole, on cells
T5 sequence (looked up): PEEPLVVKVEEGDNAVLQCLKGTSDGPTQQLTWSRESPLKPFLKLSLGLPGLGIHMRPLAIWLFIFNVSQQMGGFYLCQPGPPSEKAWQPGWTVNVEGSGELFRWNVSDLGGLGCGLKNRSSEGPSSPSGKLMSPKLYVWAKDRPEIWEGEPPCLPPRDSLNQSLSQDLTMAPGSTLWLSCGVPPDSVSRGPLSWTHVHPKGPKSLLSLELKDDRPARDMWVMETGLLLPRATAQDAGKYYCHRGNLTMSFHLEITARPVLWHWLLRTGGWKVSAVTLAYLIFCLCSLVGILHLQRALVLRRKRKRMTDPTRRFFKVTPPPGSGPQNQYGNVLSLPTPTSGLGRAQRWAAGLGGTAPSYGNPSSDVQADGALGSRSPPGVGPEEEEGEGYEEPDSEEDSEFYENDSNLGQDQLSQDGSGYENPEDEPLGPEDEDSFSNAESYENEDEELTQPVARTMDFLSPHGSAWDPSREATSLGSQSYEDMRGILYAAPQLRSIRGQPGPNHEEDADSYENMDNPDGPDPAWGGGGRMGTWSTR

T6: human CD19 on CHO-K1-human CD19 cells (human, UniProt P15391 20-556)
T6 construct: whole, on cells; also called CHO-K1-human CD19-2C8
T6 sequence (looked up): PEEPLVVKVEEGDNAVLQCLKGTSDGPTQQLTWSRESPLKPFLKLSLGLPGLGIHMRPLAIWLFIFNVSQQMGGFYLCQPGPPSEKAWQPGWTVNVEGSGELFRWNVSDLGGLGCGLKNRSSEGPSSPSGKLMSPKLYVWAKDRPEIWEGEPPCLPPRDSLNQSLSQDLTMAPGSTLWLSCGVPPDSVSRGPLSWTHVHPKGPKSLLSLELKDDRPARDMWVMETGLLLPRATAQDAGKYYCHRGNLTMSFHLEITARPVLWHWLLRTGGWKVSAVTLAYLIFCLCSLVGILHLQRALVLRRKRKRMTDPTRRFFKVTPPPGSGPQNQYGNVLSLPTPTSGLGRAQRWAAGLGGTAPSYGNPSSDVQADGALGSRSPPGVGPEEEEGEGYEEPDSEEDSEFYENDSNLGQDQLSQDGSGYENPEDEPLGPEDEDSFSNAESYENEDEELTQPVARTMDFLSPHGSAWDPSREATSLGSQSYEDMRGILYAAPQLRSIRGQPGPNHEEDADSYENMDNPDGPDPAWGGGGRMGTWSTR


What was measured:
Human CD19-his protein [1] = target: T1, Human CD19-his protein; assay: SPR Biacore, Ab captured on Protein A, CD19-His analyte
Method in brief: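 Apparent KD came from a Langmuir 1:1 fit of double-referenced sensorgrams. Recombinant human CD19-His analyte (top 200 nM, 1:1 serial dilution, 5 concentrations) flowed over Protein A-captured antibody for 240 s at 30 μl/min, then buffer for up to 600 s. Running buffer HBS-EP+ at 25 °C; regeneration with 10 mM glycine pH 1.5.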

[2] = target: T2, human CD19 exon1-3-His tag protein; assay: ELISA on coated human CD19 exon 1-3-His
Human CD19-his protein [3] = target: T3, Human CD19-his protein; assay: ELISA, antibody at 10 nM
Human CD19-his protein [4] = target: T3, Human CD19-his protein; assay: ELISA, antibody at 0.01 nM
Human CD19-his protein [5] = target: T3, Human CD19-his protein; assay: ELISA, antibody at 1.00 nM
Human CD19-his protein [6] = target: T3, Human CD19-his protein; assay: ELISA, antibody at 0.001 nM
Human CD19-his protein [7] = target: T3, Human CD19-his protein; assay: ELISA, antibody at 100 nM
Human CD19-his protein [8] = target: T3, Human CD19-his protein; assay: ELISA, antibody at 0.10 nM
murine CD19 protein = target: T4, murine CD19 protein; assay: ELISA, coated murine CD19
Method in brief: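 Plates coated overnight at 4° C with recombinant murine or monkey CD19 and blocked with 2% BSA. Chimeric antibodies, serially diluted from 100 nM, bound for 2 h at 37° C. TMB development for 10 min with OD450 read-out.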

Human CD19-his protein [9] = target: T3, Human CD19-his protein; assay: ELISA on coated human CD19-His
Protocol: (§1) Human CD19-his protein (purchased from ACROBiosystems, catalog number: CD9-H52H2) was diluted with PBS to a final concentration of 4 μg/mL, and then added to a 96-well ELISA plate at 100 μl/well. The plate was sealed with a plastic film and incubated overnight at 4° C., the plate was washed 2 times with PBS the next day, and then a blocking solution [PBS+2% (w/w) BSA] was added for blocking at room temperature for 2 h. The blocking solution was poured off, and 100 nM gradiently diluted CD19 chimeric antibody or control antibody was added at 50 μl/well. After incubation at 37° C. for 2 h, the plate was washed 3 times with PBS. […] TMB substrate was added at 50 μl/well, and incubated at room temperature for 10 min, and then a stop solution (1.0 N HCl) was added at 50 μl/well. The OD450 nm values were read by an ELISA microplate reader (Multimode Plate Reader, EnSight, purchased from Perkin Elmer).

Human CD19-his protein [10] = target: T3, Human CD19-his protein; assay: ELISA, antibody at 0.0001 nM
[11] = target: T7, monkey CD19 on HEK293T-monkey CD19 cells (monkey); assay: FACS on HEK293T-monkey CD19 cells
T7 construct: whole, on cells
Method in brief: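 Antibody binding was read as MFI by flow cytometry and EC50 was taken from curve fitting. Before that, cells at 2×10⁶ cells/ml in PBS with 2% (w/w) BSA were exposed to samples for 2 h on ice and washed. Parental HEK293T cells were tested the same way.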

human CD19 on Raji cells = target: T5, human CD19 on Raji cells; assay: FACS on Raji cells
monkey CD19 protein = target: T8, monkey CD19 protein (monkey); assay: ELISA, coated monkey CD19 protein
T8 construct: also called monkey CD19-His protein
Protocol: as §1
In order to detect the species cross-binding activity of the chimeric antibodies, an ELISA plate was coated with commercial murine CD19 (ACROBiosystems, catalog number: 50510-M08H) and monkey CD19 (ACROBiosystems, catalog number: 90051-C08H), respectively, and the ELISA detection was performed according to the method in example 5.1.

[12] = target: T6, human CD19 on CHO-K1-human CD19 cells; assay: FACS on CHO-K1-human CD19 cells

Row | Binder | OD450 (Human CD19-his protein [3]) | OD450 (Human CD19-his protein [4]) | OD450 (Human CD19-his protein [5]) | OD450 (Human CD19-his protein [6]) | OD450 (Human CD19-his protein [7]) | OD450 (Human CD19-his protein [8]) | binding result (murine CD19 protein) | EC50 (read off the curve) (Human CD19-his protein [9]) [nM] | OD450 (Human CD19-his protein [10]) | also measured
1 | F5.8.6 (antibody, human IgG1, V domains shown, human-murine chimeric antibody, human IgG1 constant) VH: QVQLHQPGAELVMPGASVTLSCKASGYTFTSYWMHWVKQRPGQGLEWIGEIDPSDSYTTYDQKFKGKATLTVDKFSSTAYMQFSSLTSEDSAVYYCARLTGNHLDYWGQGTTLTVSS VL: DIVMTQSHKFMSSSVGDRVSITCKASQDVSPAVAWYQQKPGQSPKLLIYSTSYRNTGVPDRFTGSGSGTDFTFTISSVQAEDLAVYYCQQHYSIPLTFGAGTKLELK |  |  |  |  |  |  |  |  |  | Kd (Human CD19-his protein [1]): 5.98 nM; koff (Human CD19-his protein [1]): 0.00108 s⁻¹; kon (Human CD19-his protein [1]): 181000 M⁻¹ s⁻¹; binding result [2]: no binding (tested: 100 nM)
2 | F3.118.14 (antibody, human IgG1, V domains shown, human-murine chimeric antibody, human IgG1) VH: QVQLQQSGAELVRPGASVTLSCKASGYTFPDYEIHWVKQTPVHGLEWIGAIDPETGGIGYNQKFTGKAMLTADKSSSTAYMELRSLTSEDSAVYFCTRNYGSRWGQGSTLTVSS VL: not shown | 2.9 | 0.19 | 2.27 | 0.07 | 3.21 | 1.02 | no binding | ~0.3 | 0.05 | 
3 | F3.109.1 (antibody, human IgG1, V domains shown, human-murine chimeric antibody, human IgG1) VH: EVQLQQSGAELVRPGSSVKMSCKTSGYTFTSYGINWVKQRPGQGLEWIGYIYIGNDYTEFNEKFKGKATLTSDTSSSTAYMQLSSLTSEDSAIYFCARFYSNSDPMDYWGHGTSVTVSS VL: not shown | 2.92 | 0.24 | 2.62 | 0.07 | 2.98 | 1.18 | no binding | ~0.2 | 0.05 | 
4 | F3.148.10 (antibody, human IgG1, V domains shown, human-murine chimeric antibody, human IgG1) VH: EVQLQQSGAELVRPGSSVTMSCKTSGYTFTNYGINWVKQRPGQGLEWIGYIFIGNDYTEYNEKFKGKATLTSDTSSSTAYMQLSSLTSEDSAIYFCTRFYSNYYGMDPWGQGTSVTVSS VL: not shown |  |  |  |  |  |  |  |  |  | Maximum mean fluorescence intensity [11]: 177; EC50 (human CD19 on Raji cells): 0.28 nM; Maximum mean fluorescence intensity (human CD19 on Raji cells): 31800; OD450 at 0.0001 nM (monkey CD19 protein): 0.06 OD450; OD450 at 0.001 nM (monkey CD19 protein): 0.06 OD450; OD450 at 0.01 nM (monkey CD19 protein): 0.07 OD450; OD450 at 0.10 nM (monkey CD19 protein): 0.13 OD450; OD450 at 1.00 nM (monkey CD19 protein): 0.78 OD450; OD450 at 10 nM (monkey CD19 protein): 1.93 OD450; OD450 at 100 nM (monkey CD19 protein): 2.47 OD450; EC50 [12]: 0.26 nM; Maximum mean fluorescence intensity [12]: 4700
5 | F3.77.6 (antibody, human IgG1, V domains shown, human-murine chimeric antibody, human IgG1) VH: EFQLQQSGPELVKPGASVKISCKASGYSFTDYNMNWVKQSNGKSLEWIGTINPNYITSYNQKFKGKATLTVDQSSSTAYMQLNSLTSEDSAVYYCAGDYKGYWGQGTTLTVSS VL: not shown | 2.98 | 0.3 | 2.69 | 0.08 | 2.94 | 1.33 | no binding | ~0.1 | 0.05 | 
6 | F3.124.7 (antibody, human IgG1, V domains shown, human-murine chimeric antibody, human IgG1) VH: EVQLQQSGPVLVKPGASVKMSCKASGYTFTDYYMNWVKQRHGKSLEWIGISNPYNGGTSYNQKFKDKATLTVDKSSSTAYMELNSLTSEDSAVYYCAREGGTAQPTSGMDYWGQGTSVTVSS VL: NIMMTQSPSSLAVSAGEKVTMSCKSSQSVLYSSNQKNYLAWYQQKPGQSPKLLIYWASTRESGVPDRFTGSGSGTDFTLTISSVQPEDPAVYYCHQYRSSYTFGGGTKLEIK | 2.63 | 0.81 | 2.6 | 0.18 | 2.75 | 2.08 | no binding | ~0.03 | 0.08 | 
7 | F3.74.4 (antibody, human IgG1, V domains shown, human-murine chimeric antibody, human IgG1) VH: QVQLQQSGAELVRPGASVTLSCKASGYTFTDYEMHWVKQTPVHGLEWIGGIAPETGLTTYNQKFEDKAILTADKSSRTAYMELRSLTSEDSAVYFCNPNNYGLWGTGTTVTVSS VL: not shown | 2.64 | 0.21 | 2.32 | 0.07 | 2.96 | 1.02 | no binding | ~0.2 | 0.05 | 
